In test [1] the target is human B7-H3 expressed on A375 tumor cells (human) (UniProt Q5ZPR3). Briefly: flow cytometry on A375 cells, MFI(PE); unit from the axis Conc (nM); fit value of a flat control curve. (A flow cytometer gives signals particle by particle.)
The target is the same in test [2]. The description is as above. This is another data set of the same source.
The target is the same in test [3]. Described as above. The source holds these as a separate data set.
Test [4] shares this target. Briefly: flow cytometry on A375 cells, MFI(647); unit from the axis Conc (nM); fit value of a flat control curve.
Test [5] has the same target. Briefly: flow cytometry on A375.S2 cells, MFI(647); unit from the axis Conc (nM); fit value of a flat control curve.
The target is the same in test [6]. Briefly: flow cytometry on A375 cells, MFI(PE); unit from the axis Conc(nM); fit value of a flat control curve.
For test [7], the target named is human B7-H3 protein (human) (UniProt Q5ZPR3). Briefly: Octet (BLI) epitope binning on captured human B7-H3; competitor CA84D. For orientation: BLI is a label-free optical method that tracks binding on a fibre tip over time.
For test [8] the target is unchanged. Briefly: Octet (BLI) epitope binning on captured human B7-H3; competitor AHP05562.
The target of test [9] is human B7-H3 expressed on A375 tumor cells (human) (UniProt Q5ZPR3). Briefly: flow cytometry on A375 cells, MFI(PE); unit from the axis Conc(nM).
In test [10] the target is human B7-H3 protein (human) (UniProt Q5ZPR3). Briefly: Octet (BLI) epitope binning on captured human B7-H3; competitor AHP06345 (self).
Test [11] has as its target human B7-H3 (4Ig) protein (his tag) (human) (UniProt Q5ZPR3). Briefly: SPR (Biacore T200), antibody captured on Protein A chip, B7-H3 injected, 1:1 model. A general note: Surface plasmon resonance follows binding to a sensor surface in real time, without labels.
Test [12] concerns the target human B7-H3 protein (human) (UniProt Q5ZPR3). Briefly: Octet (BLI) epitope binning on captured human B7-H3; competitor 72D1D11.
For test [13] the target is unchanged. Briefly: Octet (BLI) epitope binning on captured human B7-H3; competitor AHP06345.
Test [14] deals with human B7-H3 expressed on A375 tumor cells (human) (UniProt Q5ZPR3). Briefly: flow cytometry on A375 cells, MFI(PE); unit from the axis Conc (nM).
Test [15] has the same target. The description is as above. The source holds these as a separate data set.
Test [16] shares this target. Described as above. The source holds these as a separate data set.
The target is the same in test [17]. Described as above. The source holds these as a separate data set.
Test [18] has the same target. The description is as above. This is another data set of the same source.
For test [19] the target is unchanged. Described as above. This is another data set of the same source.
For test [20] the target is unchanged. Briefly: flow cytometry on A375 cells, MFI(647); unit from the axis Conc (nM).
Test [21] shares this target. Briefly: flow cytometry on A375.S2 cells, MFI(647); unit from the axis Conc (nM).
The target is the same in test [22]. Briefly: flow cytometry on A375 cells, MFI(647); unit from the axis Conc (nM); fit value of a flat curve.

Regarding hIgG1 (antibody), the EC50 amounted to 0.036 µM in [1]; 0.0021 µM in [2]; 0.192 µM in [3]; 0.066 nM in [4]; 0.044 nM in test [5].
As to hIgG (antibody), the results for the EC50 in test [6] and in [2] were 0.014 µM and 1970 µM, respectively.

B1: AHP06345 (antibody, V domains shown)
VH: QVQLVQSGAEVKKPGESLRISCKGSGYSFTSYWISWVRQMPGKGLEWMGRIDPSDSYTNYSPSFQGHVTISADKSISTAYLQWSSLKASDTAMYYCARHTGYYGSGIGMDVWGQGTLVTVSS
VL: HVILTQPPSVSAAPGQKVTISCSGSSSNIGNNYVSWYRQLPGTAPKLLIYDNNQRPSGIPDRFSGSKSGTSATLGITGLQTGDEADYYCATWDSSLGVVVFGGRTKLTVL
B1: the inhibition ratio in test [7] was -3.77%. Further, the inhibition ratio in test [8] is -6.36%. Besides, the EC50 in [9] stood at 0.0027 µM. Further, the inhibition ratio in [10] was 91.8%. In addition, in test [11], the dissociation constant (Kd) amounted to 0.00147 µM, the koff turned out to be 0.000254 s⁻¹ and the kon came out at 173000 M⁻¹ s⁻¹.

B2: MGA017 (antibody, from a related filing, V domains shown)
VH: EVQLVESGGGLVKPGGSLRLSCAASGFTFSSYGMSWVRQAPGKGLEWVATINSGGSNTYYPDSLKGRFTISRDNAKNSLYLQMNSLRAEDTAVYYCARHDGGAMDYWGQGTTVTVSS
VL: DIQMTQSPSSLSASVGDRVTITCRASESIYSYLAWYQQKPGKAPKLLVYNTKTLPEGVPSRFSGSGSGTDFTLTISSLQPEDFATYYCQHHYGTPPWTFGQGTRLEIK
Regarding B2, the inhibition ratio in test [7] is 3.65%; in test [12] it was 98.9%; in [8], 91.5%; in test [13], -0.09%. Besides, the EC50 in [9] stood at 0.00015 µM; in test [14], 0.00034 µM; in test [15] it was 0.00022 µM; in [16] it was 0.00028 µM; in [17], 0.0003 µM; in test [18] it was 0.00019 µM. In addition, the EC50 in test [19] was 0.00026 µM; in [20], 0.00041 µM; in test [21] it was 0.00037 µM. The same molecule showed a Kd in test [11] of 0.00179 µM. Moreover, in test [11], the koff came out at 0.00132 s⁻¹. In test [11], the kon turned out to be 737000 M⁻¹ s⁻¹.

B3: 72D1D11-z3 (antibody, V domains shown)
VH: QVQLVQSGSELKKPGASVKVSCKASGYTFTNLGLNWVRQAPGQGLEWMGWINTAGGQPTYAEDFKGRFVFSLDTSVSTAYLQISSLKAEDTAVYYCARDDGYYYTMDYWGQGTTVTVSS
VL: DIVMTQSPLSLPVTPGEPASISCRSSQSLVHSNGKTYLHWYLQKPGQSPQLLIYKVSNRFSGVPDRFSGSGSGTDFTLKISRVEAEDVGVYYCSQSTHVPWTFGGGTKLEIK
With B3, the EC50 was 0.0004 µM in [15], 0.00058 µM in [17] and 0.00064 µM in test [20].

B4: 72D1D11-z3p8 (antibody, V domains shown)
VH: QVQLVQSGSELKKPGASVKVSCKASGYTFTNLGLNWVRQAPGQGLEWMGWINTAGGQPTYAEDFKGRFVFSLDTSVSTAYLQISSLKAEDTAVYYCARDAGYYYTMDYWGQGTTVTVSS
VL: DIVMTQSPLSLPVTPGEPASISCRSSQSLVHSNAKTYLHWYLQKPGQSPQLLIYKVSNRFSGVPDRFSGSGSGTDFTLKISRVEAEDVGVYYCSQSTHVPWTFGGGTKLEIK
As to B4, the concentration giving a half-maximal response (EC50) in [22] was 22.4 µM.

The EC50 is the concentration that produces a half-maximal response. A higher EC50 goes with lower potency in that assay. Usually Kd stands for the free concentration of one partner at which half of the binding sites on the other are occupied at equilibrium, for simple one-to-one binding. A low value points to a tighter complex. Broadly, the koff is a measure of how fast the partners let go of each other. A high value points to fast dissociation. For orientation: kon means a measure of how fast the partners come together. The low end stands for slower complex formation, the high end for faster complex formation.
